Assay [1] addresses T1, human Dll1 (human, UniProt O00548 18-723).
T1 construct: whole, on cells
T1 sequence (looked up): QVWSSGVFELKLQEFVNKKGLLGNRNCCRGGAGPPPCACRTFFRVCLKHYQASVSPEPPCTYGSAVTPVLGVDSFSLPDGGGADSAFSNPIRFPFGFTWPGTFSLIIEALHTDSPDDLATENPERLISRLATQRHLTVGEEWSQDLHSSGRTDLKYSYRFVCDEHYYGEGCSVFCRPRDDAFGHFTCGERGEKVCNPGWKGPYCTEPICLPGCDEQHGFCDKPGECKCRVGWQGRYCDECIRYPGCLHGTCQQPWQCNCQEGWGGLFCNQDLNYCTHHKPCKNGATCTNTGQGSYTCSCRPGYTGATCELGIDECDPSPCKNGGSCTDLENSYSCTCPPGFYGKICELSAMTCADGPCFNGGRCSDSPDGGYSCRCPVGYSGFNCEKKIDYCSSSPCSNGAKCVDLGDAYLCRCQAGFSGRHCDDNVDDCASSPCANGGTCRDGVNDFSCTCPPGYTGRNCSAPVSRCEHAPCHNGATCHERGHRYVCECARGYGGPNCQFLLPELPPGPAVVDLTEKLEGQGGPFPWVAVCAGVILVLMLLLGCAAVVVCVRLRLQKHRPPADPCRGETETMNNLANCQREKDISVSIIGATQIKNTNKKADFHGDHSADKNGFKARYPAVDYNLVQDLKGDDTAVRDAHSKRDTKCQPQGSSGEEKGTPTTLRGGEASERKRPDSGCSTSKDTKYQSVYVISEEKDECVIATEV
The assay can be described thus: FACS, up to 300 µg/ml, HEK-293 cells stably overexpressing human Dll1. (Flow cytometry measures light scatter and fluorescence of single cells or particles in a stream.)

For assay [2], the target named is T2, human Jagged1 (human, UniProt P78504 34-1218).
T2 construct: whole, on cells
T2 sequence (P78504 34-1218): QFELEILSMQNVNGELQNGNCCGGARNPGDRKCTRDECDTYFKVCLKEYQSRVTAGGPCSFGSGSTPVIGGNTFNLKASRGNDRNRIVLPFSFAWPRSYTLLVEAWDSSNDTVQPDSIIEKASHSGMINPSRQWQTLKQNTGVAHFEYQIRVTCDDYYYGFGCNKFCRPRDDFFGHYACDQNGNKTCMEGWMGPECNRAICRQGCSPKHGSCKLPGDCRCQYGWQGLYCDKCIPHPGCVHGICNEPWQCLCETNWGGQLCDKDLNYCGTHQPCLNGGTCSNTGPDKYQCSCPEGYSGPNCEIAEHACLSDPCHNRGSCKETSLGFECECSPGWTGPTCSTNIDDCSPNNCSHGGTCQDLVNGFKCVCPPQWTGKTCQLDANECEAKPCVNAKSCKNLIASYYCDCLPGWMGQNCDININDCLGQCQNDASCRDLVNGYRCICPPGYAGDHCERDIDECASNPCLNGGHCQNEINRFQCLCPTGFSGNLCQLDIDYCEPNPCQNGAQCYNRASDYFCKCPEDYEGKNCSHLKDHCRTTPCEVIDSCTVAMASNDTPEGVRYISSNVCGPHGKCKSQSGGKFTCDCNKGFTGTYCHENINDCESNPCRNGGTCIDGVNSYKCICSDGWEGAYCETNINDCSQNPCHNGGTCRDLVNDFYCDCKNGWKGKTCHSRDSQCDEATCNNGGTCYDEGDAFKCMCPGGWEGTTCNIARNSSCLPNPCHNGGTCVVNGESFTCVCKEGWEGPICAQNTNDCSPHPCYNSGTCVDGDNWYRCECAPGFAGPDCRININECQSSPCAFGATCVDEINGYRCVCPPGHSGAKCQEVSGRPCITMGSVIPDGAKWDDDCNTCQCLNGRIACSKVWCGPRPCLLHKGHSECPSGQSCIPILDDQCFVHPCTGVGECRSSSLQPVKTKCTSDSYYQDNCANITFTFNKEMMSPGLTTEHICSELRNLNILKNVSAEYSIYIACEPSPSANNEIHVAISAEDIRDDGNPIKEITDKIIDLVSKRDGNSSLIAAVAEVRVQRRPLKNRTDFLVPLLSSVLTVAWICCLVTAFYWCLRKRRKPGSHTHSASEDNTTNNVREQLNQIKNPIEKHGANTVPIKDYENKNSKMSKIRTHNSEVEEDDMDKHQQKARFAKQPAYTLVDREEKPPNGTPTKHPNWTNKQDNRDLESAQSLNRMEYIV
Nature of the assay: FACS, up to 300 µg/ml, HEK-293 cells stably overexpressing human Jagged1.

Assay [3] has as its target T3, full length human DLL4 (human, UniProt Q9NR61 27-685).
T3 construct: whole, on cells; also called native DLL4 expressed in HEK293 cells
The assay can be described thus: FACS competition, unlabeled antibody vs competitor Alexa-647 4B4, HEK293 cells with human DLL4. Here is the method: (§1) The ability of the purified DLL4 antibodies to inhibit the binding of other DLL4 antibodies to human DLL4 was assessed using a FACS assay. Briefly, antibodies were directly labelled with Alexa-647 using a commercially available labelling kit (e.g. Molecular Probes catalog #A30009, A-20186) as per the manufacturer's instructions. To determine the level of cross-competition, unlabelled anti-DLL4 antibodies (final concentration: 10-0.01 μg/ml) diluted in PBS containing 2% FCS were added to DLL4-expressing HEK 293 cells (as described in example 6; 50000 cells/well diluted in PBS containing 2% FCS) and incubated for 1 h at 4° C. Subsequently, Alexa-647 labeled anti-DLL4 antibodies were added at a final concentration of 0.1 μg/ml and plates were incubated for a further 1 h at 4° C. prior to washing and reading on a FACSCalibur instrument. Data that summarizes the ability of unlabeled antibodies (10, 1, 0.1 μg/ml) to compete with labeled 21H3RK for binding to human DLL4 is included in FIG. 3. Additional data that summarizes the ability of unlabeled antibodies to compete with labeled 21H3RK and 4B4 for binding to human DLL4 is included in Table 22.

Assay [4] has as its target T3, full length human DLL4. Nature of the assay: FACS competition, unlabeled antibody vs competitor Alexa-647 21H3RK, HEK293 cells with human DLL4. As for the experimental part: as §1
Assay [5] concerns the target T1, human Dll1. The assay can be described thus: Flow cytometry on HEK293F cells transiently expressing HuDll1; 21H3RK, goat anti-human IgG-FITC. The text has this:
This specificity is employed to deduce the binding epitope of Mab 21H3RK to human DLL4. Chimeric variants were engineered with portions of the extracellular domain of DLL4 replaced with the corresponding segments of DLL1. […] The resulting variants were cloned into a mammalian expression vector encoding a human cytomegalovirus major immediate early (hCMVie) enhancer, promoter and 5′-untranslated region for transient mammalian expression. The chimeric variants were transiently expressed in HEK293F cells as membrane-bound proteins for flow cytometric characterization with Mab 21H3RK. 48 h post-transfection, HEK293F transfectants were incubated with 1 μg/ml of Mab 21H3RK for 1 h on ice in PBS, washed, then incubated with goat anti-human IgG-FITC (Jackson ImmunoResearch Laboratories, PA) and analyzed with a LSRII flow cytometer (BD Biosciences, CA). The expression levels of all chimeric variants were is monitored by incubating with a mixture of both goat anti-mouse DLL4 (which also recognizes human DLL4) and goat anti-human DLL1 polyclonal antibodies (both from R&D Systems., MN), then detected with porcine anti-goat IgG-PE (Invitrogen, CA).

For assay [6], the target named is T3, full length human DLL4. Nature of the assay: FACS titration, HEK293 cells with human DLL4. As for the experimental part: The binding affinities of the purified antibodies for DLL4 was estimated using is both FACS and BIAcore techniques. […] The cells were then washed and incubated with goat anti-human IgG-Fc-Cy5+5 μg/mL 7-Amino-Actinomycin (7AAD) for 30 minutes at 4° C.
In this equation, F=mean fluorescence, LT=total molecular mAb concentration, P′=proportionality constant that relates arbitrary fluorescence units to bound mAb, M=cellular concentration in molarity, n=number of receptors per cell, B=background signal, and KD=equilibrium dissociation constant. For each mAb titration curve an estimate for KD is obtained as P′, n, B, and KD are allowed to float freely in the nonlinear analysis. Table 20 summarizes the affinity estimates for the anti-DLL4 antibodies for human and cynomolgus monkey DLL4 derived using the methodology described above

Assay [7] deals with T3, full length human DLL4. The assay can be described thus: FACS competition vs human Notch1/Fc, HEK293 cells with human DLL4. As for the experimental part:
(§2) Further experiments were performed on selected antibodies using HEK293 cells that were stably transfected with either human, mouse or cynomolgus monkey DLL4 using retroviral constructs. In these experiments, anti-DLL4 antibodies (final concentration: 10-0.01 μg/ml) diluted in PBS containing 2% FCS were added to DLL4-expressing HEK 293 cells (50000 cells/well diluted in PBS containing 2% FCS) and incubated for 1 h at 4° C. Subsequently, Alexa-647 labeled human, rat or APC labeled mouse Notch1/Fc (e.g. R&D Systems, catalog #3647-TK-050, 1057-TK-050, 5267-TK-050, respectively) was added at a final concentration of 0.01-0.5 μg/ml and plates were incubated for a further 2 h at 4° C. prior to washing and reading on a FACSCalibur instrument.

The target of a further assay is T4, full length mouse DLL4 (mouse, UniProt Q9JI71 27-686).
T4 construct: whole, on cells
T4 sequence (Q9JI71 27-686): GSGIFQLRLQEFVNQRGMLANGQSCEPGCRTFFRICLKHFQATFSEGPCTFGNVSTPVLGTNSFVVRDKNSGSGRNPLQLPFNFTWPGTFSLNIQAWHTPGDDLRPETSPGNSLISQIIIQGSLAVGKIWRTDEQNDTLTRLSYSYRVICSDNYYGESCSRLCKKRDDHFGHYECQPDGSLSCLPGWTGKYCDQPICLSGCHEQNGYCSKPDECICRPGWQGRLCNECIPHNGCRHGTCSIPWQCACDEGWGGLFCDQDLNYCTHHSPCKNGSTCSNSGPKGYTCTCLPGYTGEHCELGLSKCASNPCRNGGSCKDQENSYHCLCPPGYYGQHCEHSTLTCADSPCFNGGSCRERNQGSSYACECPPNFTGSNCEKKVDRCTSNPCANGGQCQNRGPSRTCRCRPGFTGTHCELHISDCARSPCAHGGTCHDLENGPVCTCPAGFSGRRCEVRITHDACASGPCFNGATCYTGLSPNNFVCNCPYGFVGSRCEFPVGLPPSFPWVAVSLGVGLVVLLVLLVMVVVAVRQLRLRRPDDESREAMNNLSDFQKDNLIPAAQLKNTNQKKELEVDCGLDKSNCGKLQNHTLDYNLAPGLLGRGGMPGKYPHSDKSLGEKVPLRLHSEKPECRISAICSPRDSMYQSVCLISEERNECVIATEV
Nature of the assay: FACS competition vs mouse Notch1/Fc, HEK293 cells with mouse DLL4. Here is the method:
as §2

In assay [8] the target is T5, human soluble DLL4 (R&D systems catalog #1056-D4-050) (human, UniProt Q9NR61 27-524).
T5 construct: Catalog number as printed; perhaps the same product as #1506-D4; also called antigen DLL4
T5 sequence (Q9NR61 27-524 limits assumed): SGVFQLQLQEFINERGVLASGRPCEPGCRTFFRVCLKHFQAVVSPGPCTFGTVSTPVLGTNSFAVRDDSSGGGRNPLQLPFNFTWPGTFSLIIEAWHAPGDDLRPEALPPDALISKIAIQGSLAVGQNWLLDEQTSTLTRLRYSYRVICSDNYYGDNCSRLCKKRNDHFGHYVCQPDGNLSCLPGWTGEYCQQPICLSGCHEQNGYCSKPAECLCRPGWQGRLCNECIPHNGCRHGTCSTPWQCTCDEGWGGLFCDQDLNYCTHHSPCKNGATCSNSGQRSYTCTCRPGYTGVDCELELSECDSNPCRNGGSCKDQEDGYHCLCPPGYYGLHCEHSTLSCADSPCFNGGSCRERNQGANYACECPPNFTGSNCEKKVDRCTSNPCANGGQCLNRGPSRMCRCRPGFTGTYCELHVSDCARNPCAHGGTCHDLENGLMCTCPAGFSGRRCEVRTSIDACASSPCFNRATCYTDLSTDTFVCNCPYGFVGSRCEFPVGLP
The assay can be described thus: Biacore T100, antibody immobilised, soluble human DLL4 as analyte. As for the experimental part: For Biacore analysis, each purified anti-DLL4 antibody was immobilized on a CM5 sensor chip within a T100 using standard amine coupling. Immobilization levels were kept below 200 RU. The concentration of DLL4 was determined by UV-VIS spectroscopy using a molar absorptivity at 280 nm of 110, 440 M⁻¹cm⁻¹, which was calculated from the sequence of the protein using a method developed by Pace et al. (G. R. Grimsley and C. N. Pace (2003) in Current Protocols in Protein Science (John Wiley & Sons, Inc.), 3.1.1-3.1.9). The antigen DLL4 (R&D systems; human catalog #1056-D4-050 or mouse, catalog #1389-D4-050) was diluted to a starting concentration of 32-64 nM and tested in a 3-fold dilution series in triplicate. The running buffer contained HBS-P with 0.1 mg/ml BSA and binding responses were collected at 23° C. Bound complexes were regenerated with a 15 s pulse of 10 mM of sodium hydroxide. The response data were globally fitted with a simple 1:1 interaction model and Table 20 summarizes the kₐ, kd and KD estimates obtained for the anti-DLL4 antibodies when binding to human soluble DLL4 was assessed.

In assay [9] the target is T2, human Jagged1. Nature of the assay: FACS, 5 µg/ml, 293T cells with human Jagged1. The method, boiled down: (§3)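 Purified anti-DLL4 antibodies were diluted in PBS with 2% FCS and incubated with cells (50000/well, same buffer) for 1 h at 4 °C. Binding was read by flow cytometry as the shift in geometric mean fluorescence in transfected cells relative to mock-transfected cells.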

In assay [10] the target is T2, human Jagged1. Nature of the assay: FACS, 1 µg/ml, 293T cells with human Jagged1 vs mock.
Assay [11] has as its target T2, human Jagged1. The assay can be described thus: FACS, 5 µg/ml, 293T cells with human Jagged1 vs mock. The procedure, abridged: as §3
Assay [12] deals with T2, human Jagged1. The assay can be described thus: FACS, 0.2 µg/ml, 293T cells with human Jagged1 vs mock.

Some results are limits rather than exact numbers.

T3 sequence (Q9NR61 27-685): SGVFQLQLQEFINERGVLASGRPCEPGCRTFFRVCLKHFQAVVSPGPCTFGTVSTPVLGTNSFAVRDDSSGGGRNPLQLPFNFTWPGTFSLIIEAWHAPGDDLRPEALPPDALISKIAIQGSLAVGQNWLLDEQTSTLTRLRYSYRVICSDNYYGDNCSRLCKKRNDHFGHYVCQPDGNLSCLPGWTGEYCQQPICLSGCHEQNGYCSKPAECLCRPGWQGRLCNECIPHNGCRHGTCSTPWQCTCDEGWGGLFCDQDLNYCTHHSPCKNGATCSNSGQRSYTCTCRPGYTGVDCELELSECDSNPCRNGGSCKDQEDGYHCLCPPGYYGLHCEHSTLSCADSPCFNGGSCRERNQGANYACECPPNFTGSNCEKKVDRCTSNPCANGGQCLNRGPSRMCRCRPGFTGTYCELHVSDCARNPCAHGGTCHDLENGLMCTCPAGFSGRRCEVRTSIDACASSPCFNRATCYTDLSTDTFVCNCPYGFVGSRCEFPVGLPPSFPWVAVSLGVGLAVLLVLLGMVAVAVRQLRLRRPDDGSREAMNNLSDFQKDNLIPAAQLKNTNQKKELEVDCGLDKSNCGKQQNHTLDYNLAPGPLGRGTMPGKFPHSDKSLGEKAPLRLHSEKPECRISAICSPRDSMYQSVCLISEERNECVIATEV

B1: 21H3RK (antibody, V domains shown)
VH: QVQLVQSGAEVKKPGASVKVSCKASGYTFTNYGITWVRQAPGQGPEWMGWISAYNGNTNYAQKLQDRVTVTTDTSTSTAYMELRSLRSDDTAVYYCARDRVPRIPVTTEAFDIWGQGTMVTVSS
VL: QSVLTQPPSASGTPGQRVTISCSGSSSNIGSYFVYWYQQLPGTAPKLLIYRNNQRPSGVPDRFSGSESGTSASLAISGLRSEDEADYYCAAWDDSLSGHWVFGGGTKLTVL
notes: also called Mab 21H3RK; Monoclonal 21H3RK
With B1, the fold over background in the assay with human Dll1 [1] and in the assay with human Jagged1 [2] was below 2.5 fold each time. Moreover, the half-maximal inhibitory concentration (IC50) (as a rule, the midpoint of a concentration-inhibition curve) with full length human DLL4 [3] was 0.223 mg/L; with full length human DLL4 [4], 0.214 mg/L. In addition, the binding result in the assay with human Dll1 [5] is recorded as “no binding (tested: 1 ug/ml (single concentration))”.

B2: 21H3RK IgG1 (antibody, V domains shown)
VH: B1 VH
VL: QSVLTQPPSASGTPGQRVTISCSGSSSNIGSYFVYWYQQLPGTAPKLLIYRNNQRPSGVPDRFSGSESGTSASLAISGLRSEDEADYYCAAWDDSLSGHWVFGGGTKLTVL
notes: IgG1; VL is 21H3 VLOP1 (R107K)
Consider B2, for which the Kd (in general, the equilibrium constant for the complex coming apart) with full length human DLL4 [6] is 0.155 nM. In addition, the half-maximal inhibitory concentration (IC50) in the assay with full length human DLL4 [7] was 0.58 nM. In the assay with full length mouse DLL4, the 50% inhibitory concentration (IC50) is 42 nM. In [8], binding was put at a Kd of 0.493 nM; the dissociation rate constant (koff) (in general, the first-order rate constant of dissociation) stood at 0.000166 s⁻¹; the kon – broadly, the rate constant with which the complex forms – was 337000 M⁻¹ s⁻¹.

B3: human Notch3/Fc chimera (Fc fusion, UniProt Q9UM47 40-467, looked up)
chain: APPCLDGSPCANGGRCTQLPSREAACLCPPGWVGERCQLEDPCHSGPCAGRGVCQSSVVAGTARFSCRCPRGFRGPDCSLPDPCLSSPCAHGARCSVGPDGRFLCSCPPGYQGRSCRSDVDECRVGEPCRHGGTCLNTPGSFRCQCPAGYTGPLCENPAVPCAPSPCRNGGTCRQSGDLTYDCACLPGFEGQNCEVNVDDCPGHRCLNGGTCVDGVNTYNCQCPPEWTGQFCTEDVDECQLQPNACHNGGTCFNTLGGHSCVCVNGWTGESCSQNIDDCATAVCFHGATCHDRVASFYCACPMGKTGLLCHLDDACVSNPCHEDAICDTNPVNGRAICTCPPGFTGGACDQDVDECSIGANPCEHLGRCVNTQGSFLCQCGRGYTGPRCETDVNECLSGPCRNQATCLDRIGQFTCICMAGFTGTYCE
notes: Positive control for Jagged1; also called N3 Fc; Fc part of the bought chimera not given, not described
As for B3, the “Jagged1/293T X Geo mean” value with human Jagged1 [9] is 51. Further, the values for the Jagged1/mock ratio with human Jagged1 [10], with human Jagged1 [11] and in the assay with human Jagged1 [12] were 2.88, 3.87 and 1.96, respectively.

(Values after patent US20100196385A1 (AstraZeneca / MedImmune, published 2010).)
